Test results taken from US20200199241A1 (Chugai, published 2020).

T1: mouse FcγRIIb (mouse, UniProt P08101 30-207, limits assumed)
T1 construct: bought; also called mFcgRIIb; mFcgR IIb
T1 sequence (looked up): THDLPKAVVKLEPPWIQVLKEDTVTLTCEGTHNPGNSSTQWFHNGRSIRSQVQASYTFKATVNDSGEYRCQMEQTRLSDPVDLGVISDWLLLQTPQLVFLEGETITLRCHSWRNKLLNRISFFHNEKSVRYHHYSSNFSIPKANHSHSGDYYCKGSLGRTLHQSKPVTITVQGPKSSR

T2: mouse FcγRIV (mouse, UniProt A0A0B4J1G0 21-203)
T2 construct: bought; also called mFcgRIV; mFcgR IV; the vendor's purification tag not given
T2 sequence: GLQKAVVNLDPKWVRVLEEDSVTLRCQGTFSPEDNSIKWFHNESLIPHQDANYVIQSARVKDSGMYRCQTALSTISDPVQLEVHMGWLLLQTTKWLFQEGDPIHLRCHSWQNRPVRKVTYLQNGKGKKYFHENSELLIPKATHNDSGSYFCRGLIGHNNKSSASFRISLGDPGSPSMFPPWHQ

T3: mouse FcγRIII (mouse, UniProt P08508 31-215)
T3 construct: bought; also called mFcgRIII; mFcgR III
T3 sequence (looked up): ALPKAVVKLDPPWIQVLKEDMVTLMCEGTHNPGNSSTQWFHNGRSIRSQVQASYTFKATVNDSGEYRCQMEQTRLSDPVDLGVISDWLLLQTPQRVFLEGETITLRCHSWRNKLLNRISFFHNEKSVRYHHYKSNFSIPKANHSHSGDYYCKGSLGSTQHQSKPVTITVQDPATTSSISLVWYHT

T4: mouse FcγRI (mouse, UniProt P26151 25-297)
T4 construct: bought; also called mFcgRI; mFcgR 1
T4 sequence (looked up): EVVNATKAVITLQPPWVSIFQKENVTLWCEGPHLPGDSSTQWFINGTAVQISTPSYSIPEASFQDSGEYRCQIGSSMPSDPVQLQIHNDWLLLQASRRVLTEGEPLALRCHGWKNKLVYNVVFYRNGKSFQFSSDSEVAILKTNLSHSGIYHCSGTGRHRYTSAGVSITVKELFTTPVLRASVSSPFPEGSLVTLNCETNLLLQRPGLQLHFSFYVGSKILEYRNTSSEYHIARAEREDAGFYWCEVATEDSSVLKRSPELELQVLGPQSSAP

T5: human FcγRIIb (human, UniProt P31994 43-217, limits assumed)
T5 construct: also called hFcgRIIb; FcγIIB
T5 sequence: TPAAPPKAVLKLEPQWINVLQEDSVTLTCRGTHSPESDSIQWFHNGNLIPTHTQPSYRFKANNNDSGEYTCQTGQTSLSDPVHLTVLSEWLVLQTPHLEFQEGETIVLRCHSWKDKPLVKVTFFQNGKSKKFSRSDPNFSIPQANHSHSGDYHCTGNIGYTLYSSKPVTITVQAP


Legend:
mouse FcγRIIb = biological target: T1, mouse FcγRIIb; experiment: SPR, antibody captured by Protein L, mouse FcγR as analyte, pH 7.4, 25 C
Description: (§1) Binding activity between the antibodies and mouse FcγRI, FcγRII, FcγRIII and FcγRIV (R&D Systems, Sino Biological) (hereinafter referred to as mouse FcγRs) was evaluated using the BIACORE™ T100 or T200 surface plasmon resonance system (GE Healthcare). The antibodies being tested were captured by Protein L (ACTIGEN® protein (Alltech)) that was immobilized in suitable amounts on the CM4 Sensor Chip (GE Healthcare) by amine coupling. Next, the diluted mouse FcγRs and a running buffer used as a blank were injected to allow interaction with the antibody captured on the sensor chip. A buffer consisting of 20 mmol/L N-(2-acetamido)-2-aminoethanesulfonic acid (ACES), 150 mmol/L NaCl and 0.05% (w/v) polysorbate 20 (Tween 20®) (pH 7.4) was used for the running buffer, and this buffer was also used to dilute the mouse FcγRs. 10 mmol/L glycine-HCl (pH 1.5) was used to regenerate the sensor chip. All measurements were carried out at 25° C.
(§2) Binding activity to mouse FcγRs can be represented by the relative binding activity to mouse FcγRs. Antibody was captured by Protein L, and the amount of change in a sensorgram before and after the antibody was captured was defined as X1. Next, mouse FcγRs were allowed to interact with the antibody, and the value obtained by subtracting binding activity of mouse FcγRs represented as the amount of change in a sensorgram before and after allowing the running buffer to interact with antibody captured by Protein L (AA2) from the value obtained by multiplying by 1500 the value obtained by dividing the binding activity of mouse FcγRs represented as the amount of change in a sensorgram before and after that interaction (AA1) by the captured amount (X) of each antibody, was divided by the captured amount of each antibody (X) followed by multiplying by 1500 to obtain the binding activity of the mouse FcγRs (Y) (Equation 1).

mouse FcγRIV = biological target: T2, mouse FcγRIV; experiment: as above
Description: as §1, §2

mouse FcγRIII = biological target: T3, mouse FcγRIII; experiment: as above
Description: as §1, §2

mouse FcγRI = biological target: T4, mouse FcγRI; experiment: as above
Description: as §1, §2

human FcγRIIb = biological target: T5, human FcγRIIb; experiment: SPR (Biacore), amount of FcγRIIb bound to the captured antibody, relative to GpH7-B3/GpL16-k0 = 100

Binder | BINDING AMOUNT (RU) (mouse FcγRIIb) | BINDING AMOUNT (RU) (mouse FcγRIV) | BINDING AMOUNT (RU) (mouse FcγRIII) | BINDING AMOUNT (RU) (mouse FcγRI) | binding result (human FcγRIIb)
antibody with mPM1H-mIgG1 heavy chain and L(WT)-CK light chain (antibody, mouse IgG1 heavy chain with natural mouse Fc region; also called mPM1-mIgG1; copies: 2 + 2) heavy: DVQLQESGPVLVKPSQSLSLTCTVTGYSITSDHAWSWIRQFPGNKLEWMGYISYSGITTYNPSLKSRISITRDTSKNQFFLQLNSVTTGDTSTYYCARSLARTTAMDYWGQGTSVTVSSAKTTPPSVYPLAPGSAAQTNSMVTLGCLVKGYFPEPVTVTWNSGSLSSGVHTFPAVLQSDLYTLSSSVTVPSSTWPSETVTCNVAHPASSTKVDKKIVPRDCGCKPCICTVPEVSSVFIFPPKPKDVLTITLTPKVTCVVVDISKDDPEVQFSWFVDDVEVHTAQTQPREEQFNSTFRSVSELPIMHQDWLNGKEFKCRVNSAAFPAPIEKTISKTKGRPKAPQVYTIPPPKEQMAKDKVSLTCMITDFFPEDITVEWQWNGQPAENYKNTQPIMDTDGSYFVYSKLNVQKSNWEAGNTFTCSVLHEGLHNHHTEKSLSHSPGK light: not shown | 202 | -3.5 | 450 | -2 | –
antibody with mPM1H-mIgG1-mF14 heavy chain (antibody, T252Y/T256E/H433K; also called mPM1-mIgG1-mF14; copies: 2 + 2) heavy: DVQLQESGPVLVKPSQSLSLTCTVTGYSITSDHAWSWIRQFPGNKLEWMGYISYSGITTYNPSLKSRISITRDTSKNQFFLQLNSVTTGDTSTYYCARSLARTTAMDYWGQGTSVTVSSAKTTPPSVYPLAPGSAAQTNSMVTLGCLVKGYFPEPVTVTWNSGSLSSGVHTFPAVLQSDLYTLSSSVTVPSSTWPSETVTCNVAHPASSTKVDKKIVPRDCGCKPCICTVPEVSSVFIFPPKPKDVLYITLEPKVTCVVVDISKDDPEVQFSWFVDDVEVHTAQTQPREEQFNSTFRSVSELPIMHQDWLNGKEFKCRVNSAAFPAPIEKTISKTKGRPKAPQVYTIPPPKEQMAKDKVSLTCMITDFFPEDITVEWQWNGQPAENYKNTQPIMDTDGSYFVYSKLNVQKSNWEAGNTFTCSVLHEGLKNHHTEKSLSHSPGK light: not shown | 184 | -8 | 447 | -3.7 | –
antibody with mPM1H-mIgG1-mF39 heavy chain (antibody, P235K/S239K/T252Y/T256E/H433K; also called mPM1-mIgG1-mF39; copies: 2 + 2) heavy: DVQLQESGPVLVKPSQSLSLTCTVTGYSITSDHAWSWIRQFPGNKLEWMGYISYSGITTYNPSLKSRISITRDTSKNQFFLQLNSVTTGDTSTYYCARSLARTTAMDYWGQGTSVTVSSAKTTPPSVYPLAPGSAAQTNSMVTLGCLVKGYFPEPVTVTWNSGSLSSGVHTFPAVLQSDLYTLSSSVTVPSSTWPSETVTCNVAHPASSTKVDKKIVPRDCGCKPCICTVKEVSKVFIFPPKPKDVLYITLEPKVTCVVVDISKDDPEVQFSWFVDDVEVHTAQTQPREEQFNSTFRSVSELPIMHQDWLNGKEFKCRVNSAAFPAPIEKTISKTKGRPKAPQVYTIPPPKEQMAKDKVSLTCMITDFFPEDITVEWQWNGQPAENYKNTQPIMDTDGSYFVYSKLNVQKSNWEAGNTFTCSVLHEGLKNHHTEKSLSHSPGK light: not shown | -3 | -3.8 | -8.4 | -3.1 | –
antibody with mPM1H-mIgG1-mF40 heavy chain (antibody, P235K/S239K/T252Y/T256E/N434W; also called mPM1-mIgG1-mF40; copies: 2 + 2) heavy: DVQLQESGPVLVKPSQSLSLTCTVTGYSITSDHAWSWIRQFPGNKLEWMGYISYSGITTYNPSLKSRISITRDTSKNQFFLQLNSVTTGDTSTYYCARSLARTTAMDYWGQGTSVTVSSAKTTPPSVYPLAPGSAAQTNSMVTLGCLVKGYFPEPVTVTWNSGSLSSGVHTFPAVLQSDLYTLSSSVTVPSSTWPSETVTCNVAHPASSTKVDKKIVPRDCGCKPCICTVKEVSKVFIFPPKPKDVLYITLEPKVTCVVVDISKDDPEVQFSWFVDDVEVHTAQTQPREEQFNSTFRSVSELPIMHQDWLNGKEFKCRVNSAAFPAPIEKTISKTKGRPKAPQVYTIPPPKEQMAKDKVSLTCMITDFFPEDITVEWQWNGQPAENYKNTQPIMDTDGSYFVYSKLNVQKSNWEAGNTFTCSVLHEGLHWHHTEKSLSHSPGK light: not shown | -5.2 | -8.9 | -18.7 | -3 | –
antibody with mPM1H-mIgG1-mF38 heavy chain (antibody, T252Y/T256E/N434W; also called mPM1-mIgG1-mF38; copies: 2 + 2) heavy: DVQLQESGPVLVKPSQSLSLTCTVTGYSITSDHAWSWIRQFPGNKLEWMGYISYSGITTYNPSLKSRISITRDTSKNQFFLQLNSVTTGDTSTYYCARSLARTTAMDYWGQGTSVTVSSAKTTPPSVYPLAPGSAAQTNSMVTLGCLVKGYFPEPVTVTWNSGSLSSGVHTFPAVLQSDLYTLSSSVTVPSSTWPSETVTCNVAHPASSTKVDKKIVPRDCGCKPCICTVPEVSSVFIFPPKPKDVLYITLEPKVTCVVVDISKDDPEVQFSWFVDDVEVHTAQTQPREEQFNSTFRSVSELPIMHQDWLNGKEFKCRVNSAAFPAPIEKTISKTKGRPKAPQVYTIPPPKEQMAKDKVSLTCMITDFFPEDITVEWQWNGQPAENYKNTQPIMDTDGSYFVYSKLNVQKSNWEAGNTFTCSVLHEGLHWHHTEKSLSHSPGK light: not shown | 161 | -4.1 | 403 | -2 | –
G237F (antibody, also called GpH7-B3 variant G237F/GpL16-k0; copies: 2 + 2) heavy: not shown light: DIVMTQSPLSLPVTPGEPASISCQASESLVHSNRNTYLHWYLQKPGQSPQLLIYKVSNRFSGVPDRFSGSGSGTDFTLKISRVEAEDVGVYYCSQNTHVPPTFGQGTKVEIERTVAAPSVFIFPPSDEQLKSGTASVVCLLNNFYPREAKVQWKVDNALQSGNSQESVTEQDSKDSTYSLSSTLTLSKADYEKHKVYACEVTHQGLSSPVTKSFNRGEC | – | – | – | – | binds
S239D (antibody, also called GpH7-B3 variant S239D/GpL16-k0; copies: 2 + 2) heavy: not shown light: DIVMTQSPLSLPVTPGEPASISCQASESLVHSNRNTYLHWYLQKPGQSPQLLIYKVSNRFSGVPDRFSGSGSGTDFTLKISRVEAEDVGVYYCSQNTHVPPTFGQGTKVEIERTVAAPSVFIFPPSDEQLKSGTASVVCLLNNFYPREAKVQWKVDNALQSGNSQESVTEQDSKDSTYSLSSTLTLSKADYEKHKVYACEVTHQGLSSPVTKSFNRGEC | – | – | – | – | binds
L234Y (antibody, also called GpH7-B3 variant L234Y/GpL16-k0; copies: 2 + 2) heavy: not shown light: DIVMTQSPLSLPVTPGEPASISCQASESLVHSNRNTYLHWYLQKPGQSPQLLIYKVSNRFSGVPDRFSGSGSGTDFTLKISRVEAEDVGVYYCSQNTHVPPTFGQGTKVEIERTVAAPSVFIFPPSDEQLKSGTASVVCLLNNFYPREAKVQWKVDNALQSGNSQESVTEQDSKDSTYSLSSTLTLSKADYEKHKVYACEVTHQGLSSPVTKSFNRGEC | – | – | – | – | binds
G237W (antibody, also called GpH7-B3 variant G237W/GpL16-k0; copies: 2 + 2) heavy: not shown light: DIVMTQSPLSLPVTPGEPASISCQASESLVHSNRNTYLHWYLQKPGQSPQLLIYKVSNRFSGVPDRFSGSGSGTDFTLKISRVEAEDVGVYYCSQNTHVPPTFGQGTKVEIERTVAAPSVFIFPPSDEQLKSGTASVVCLLNNFYPREAKVQWKVDNALQSGNSQESVTEQDSKDSTYSLSSTLTLSKADYEKHKVYACEVTHQGLSSPVTKSFNRGEC | – | – | – | – | binds
